The text below walks through data of patent publication US20140315811A1, “OPHTHALMIC PREPARATIONS BASED ON PACAP (PITUITARY ADENYLATE CYCLASE ACTIVATING POLYPEPTIDE) WHICH RESTORE THE NORMAL VISUAL FUNCTION IN EARLY GLAUCOMA” (HMFRA HUNGARY LIMITED LIABILITY COMPANY, priority 2011, published 2014).

Data set [1] relates to cAMP levels in the retina. The data set can be described thus: Determination of cAMP levels in the retina after topical application of PACAP 38 (Cyclic AMP EIA kit, retinal homogenate). Format: in vivo, mice (C57BL-6J). As to conditions: topical application into conjunctival sac, PACAP 50 μM (0.226 μg/μl) in saline (0.9% NaCl) and acetic acid (5%); 6 hours after application; Student's t-test p<0.05. How it is done: • The preparation Based on Saline Solution (0.9% NaCl) Containing PACAP 38 was Used
The test was conducted on mice (C57BL-6J, Harlan, Italy); PACAP 38 was applied topically, instilled into the conjunctival sac of one eye, while the other eye, used as control, was treated with the saline solution (“placebo”) only. • Determination of cAMP Levels in the Retina
The animals were sacrificed 6 hours after the topical application, when deep anaesthesia had been induced by an intraperitoneal urethane injection (20%). The eye was then removed, and the cAMP level measured in the retinal homogenate of the eye treated with PACAP and of the other eye treated with saline only (control eye). The measurements were performed by cyclic AMP assay using the Cyclic AMP EIA KIT ([…]). The results shown in the chart in FIG. 1 were obtained with a topical application of PACAP (50 μM; 0.226 μg/μl) in saline solution (0.9% NaCl) and acetic acid (5%), and are expressed as relative values (%) compared with the control eye.
(In general: cAMP levels reflect the balance of adenylyl cyclase and phosphodiesterase activity.)

Data set [2] concerns DBA/2J mouse (retinal ganglion cells / inner nuclear layer response). The data set can be described thus: Pattern electroretinogram (P-ERG) after repeated topical application in murine spontaneous glaucoma model. Format: in vivo. The source says:
The PACAP receptor, called PAC1, is known to be expressed in the ganglion cells (Seki et al. 1997; 2000; D'Agata and Cavallaro 1998; Hannibal and Fahrenkrug 2004; Kubrusly et al. 2005). The activity of PACAP was verified in the most common experimental model of spontaneous glaucoma, a double mutant mouse called DBA/2J (John et al., 1998; Chang et al., 1999). The DBA/2J mouse presents homozygous mutations of two separate genes; the first is […] (Tyrpl−/−) coding for a melanosome protein, and the second is a membrane glycoprotein (Gpnmb−/−); pigment granules accumulate in the trabecular meshwork, similar to the form of pigmentary glaucoma, with consequent trabecular degeneration, atrophy of the iris and progressive impairment of the outflow of aqueous humor, which leads to an increase in IOP.
This mouse is characterised by a progressive increase in IOP, with progressive loss of the retinal response to structured visual stimuli (which may be lattices formed by pale strips alternating with dark strips, or chess pieces, with different contrasts and sizes) which depends on the inner nuclear layer/ganglion cells; in humans and in the animal model, this retinal response is called the pattern electroretinogram (P-ERG; Domenici et al.,1991; Ventura and Porciatti, 2006; Falsini et al., 2008). The dysfunction of the ganglion cells is followed at a late stage by degeneration of the ganglion cells, with a reduction in their density and progressive atrophy of the optic nerve (Ventura et al., 2006; Buckingham et al., 2008). […] At the age of 11 months the IOP rises further; a progression of the disorder similar to that which takes place in human patients can therefore be deduced. […]

The test system of data set [3] is DBA/2J mouse (photoreceptors and outer nuclear layer response to light). The data set can be described thus: Flash ERG after repeated topical application in murine spontaneous glaucoma model. As to conditions: PACAP 50 μM in saline, two weeks, one treatment every 48 h. Format: in vivo. An excerpt:
The other type of electroretinogram, flash ERG, which measures the response of the photoreceptors and the outer nuclear layer to light, appears wholly intact in glaucoma, further supporting the theory that this is a type of disorder affecting the inner nuclear layer, namely the ganglion cells, at least at the early stage.

With “Pituitary Adenylate Cyclase Activating Polypeptide [PACAP]”, the “cAMP level in retinal homogenate, treated eye compared with control eye” value in data set [1] was “significantly higher”. Further, in data set [2] (500 nM (0.0022 μg/μl), 1 μM (0.0045 μg/μl), 50 μM (0.226 μg/μl), topical, every 48 hours for two weeks, 8-month-old mice), the “Effectiveness on P-ERG across the three concentrations tested” value is on record as “only the highest concentration (50 μM, 0.226 μg/μl) proved effective”. Also, the “Effect on alteration of P-ERG (treated eye vs control eye)” value in data set [2] (PACAP 50 μM (0.226 μg/μl) in saline, topical, one application every 48 hours for 2 weeks between 8 and 8.5 months of age, p<0.05) is “prevented the alteration of P-ERG”. Also, in data set [2] (repeated topical treatment, DBA/2J mouse, early stage glaucoma), the “Minimal effective concentration able to exert protective effects on the ganglion cell function” value came out at 0.226 µg/µL. In data set [3], the “Flash ERG of the treated eye (response of photoreceptors and outer nuclear layer to light)” value is on record as “normal flash ERG”.
